Key:
MCM8 R309D;MBP-MCM9 = MCM8 R309D;MBP-MCM9 (human;human, UniProt Q9UJA3;Q9NXL9 1-840;1-1143, R309D|); test: mass photometry; 1 mM ATP, 2 mM Mg acetate; heterodimer bound plus likely hexamer (Peak 4); EMSA: 25 mM Tris-acetate pH 7.5, 3 mM EDTA (or 4 mM ATP/ATPgS + 1 mM Mg acetate), 1 mM DTT, 0.1 mg/ml BSA, 1 nM DNA (100 ng for M13), 15 min on ice, gels at 4 C; mass photometry: 25 mM HEPES-NaOH pH 7.5, 2 mM Mg acetate, 1 mM ATP, room temperature; conditions: protein: recombinant;recombinant; tags: N-terminal FLAG;N-terminal MBP (not cleaved); chain copies: 3;3; single strand
MCM8 R309D;MBP-MCM9, sequence (Q9UJA3 whole entry R309D, chain 1 of 2): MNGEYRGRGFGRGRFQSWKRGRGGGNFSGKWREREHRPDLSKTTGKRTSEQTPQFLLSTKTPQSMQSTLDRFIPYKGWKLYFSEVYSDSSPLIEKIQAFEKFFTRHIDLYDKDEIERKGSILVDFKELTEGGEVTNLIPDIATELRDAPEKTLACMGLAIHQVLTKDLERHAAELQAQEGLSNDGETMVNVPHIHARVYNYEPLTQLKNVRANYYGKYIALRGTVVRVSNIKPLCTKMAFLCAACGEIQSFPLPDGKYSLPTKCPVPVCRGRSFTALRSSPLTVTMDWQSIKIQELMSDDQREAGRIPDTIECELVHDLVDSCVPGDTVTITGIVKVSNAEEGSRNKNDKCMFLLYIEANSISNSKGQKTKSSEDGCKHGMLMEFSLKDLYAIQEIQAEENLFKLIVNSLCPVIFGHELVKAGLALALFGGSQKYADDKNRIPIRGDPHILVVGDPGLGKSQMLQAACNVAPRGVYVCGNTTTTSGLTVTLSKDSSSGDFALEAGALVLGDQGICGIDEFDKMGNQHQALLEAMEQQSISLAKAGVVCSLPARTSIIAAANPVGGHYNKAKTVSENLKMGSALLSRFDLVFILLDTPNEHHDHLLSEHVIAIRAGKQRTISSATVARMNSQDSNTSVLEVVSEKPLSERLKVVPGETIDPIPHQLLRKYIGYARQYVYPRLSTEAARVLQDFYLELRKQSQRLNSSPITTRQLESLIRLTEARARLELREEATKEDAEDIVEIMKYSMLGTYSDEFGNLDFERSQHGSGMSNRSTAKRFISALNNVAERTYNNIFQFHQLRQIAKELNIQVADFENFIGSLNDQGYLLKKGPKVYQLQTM
MCM8 R309D;MBP-MCM9, sequence (Q9NXL9 whole entry, chain 2 of 2): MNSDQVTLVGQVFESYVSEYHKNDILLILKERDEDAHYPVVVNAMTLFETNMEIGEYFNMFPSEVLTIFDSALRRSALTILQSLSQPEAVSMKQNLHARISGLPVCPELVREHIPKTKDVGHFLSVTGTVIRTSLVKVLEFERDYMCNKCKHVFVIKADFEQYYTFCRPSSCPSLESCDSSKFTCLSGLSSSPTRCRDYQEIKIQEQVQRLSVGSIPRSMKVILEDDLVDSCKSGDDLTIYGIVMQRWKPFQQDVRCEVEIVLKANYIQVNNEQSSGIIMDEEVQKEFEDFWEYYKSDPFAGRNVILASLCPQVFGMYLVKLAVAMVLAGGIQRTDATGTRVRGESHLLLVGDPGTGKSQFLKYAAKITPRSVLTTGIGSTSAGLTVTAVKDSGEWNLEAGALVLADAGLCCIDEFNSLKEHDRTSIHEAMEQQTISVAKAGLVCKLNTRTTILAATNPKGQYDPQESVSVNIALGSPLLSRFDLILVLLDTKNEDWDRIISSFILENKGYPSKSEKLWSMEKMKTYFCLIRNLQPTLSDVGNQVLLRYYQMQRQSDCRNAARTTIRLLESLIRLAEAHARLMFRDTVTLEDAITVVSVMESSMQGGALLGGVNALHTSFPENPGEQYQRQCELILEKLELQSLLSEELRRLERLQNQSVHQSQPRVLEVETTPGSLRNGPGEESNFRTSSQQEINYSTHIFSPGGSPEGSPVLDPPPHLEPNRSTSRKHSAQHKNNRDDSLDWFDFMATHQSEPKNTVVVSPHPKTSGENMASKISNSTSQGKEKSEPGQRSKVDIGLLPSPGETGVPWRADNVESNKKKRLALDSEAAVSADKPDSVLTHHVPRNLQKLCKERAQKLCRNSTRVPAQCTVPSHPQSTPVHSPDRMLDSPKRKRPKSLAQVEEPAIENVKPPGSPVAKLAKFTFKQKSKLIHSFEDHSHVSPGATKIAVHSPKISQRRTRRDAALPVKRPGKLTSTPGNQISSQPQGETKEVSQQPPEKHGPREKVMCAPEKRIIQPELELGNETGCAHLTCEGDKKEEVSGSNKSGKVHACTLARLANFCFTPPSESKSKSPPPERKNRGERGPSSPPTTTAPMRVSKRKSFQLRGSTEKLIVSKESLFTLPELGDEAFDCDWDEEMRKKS

HROB-FLAG [1] = biological target: T1, HROB-FLAG (human, UniProt Q8N3J3-4 1-646, T126P); test: EMSA; 3 mM EDTA; preferred; EMSA: 25 mM Tris-acetate pH 7.5, 3 mM EDTA (or 4 mM ATP/ATPgS + 1 mM Mg acetate), 1 mM DTT, 0.1 mg/ml BSA, 1 nM DNA (100 ng for M13), 15 min on ice, gels at 4 C; mass photometry: 25 mM HEPES-NaOH pH 7.5, 2 mM Mg acetate, 1 mM ATP, room temperature; conditions: protein: recombinant, tags: C-terminal FLAG
T1 sequence: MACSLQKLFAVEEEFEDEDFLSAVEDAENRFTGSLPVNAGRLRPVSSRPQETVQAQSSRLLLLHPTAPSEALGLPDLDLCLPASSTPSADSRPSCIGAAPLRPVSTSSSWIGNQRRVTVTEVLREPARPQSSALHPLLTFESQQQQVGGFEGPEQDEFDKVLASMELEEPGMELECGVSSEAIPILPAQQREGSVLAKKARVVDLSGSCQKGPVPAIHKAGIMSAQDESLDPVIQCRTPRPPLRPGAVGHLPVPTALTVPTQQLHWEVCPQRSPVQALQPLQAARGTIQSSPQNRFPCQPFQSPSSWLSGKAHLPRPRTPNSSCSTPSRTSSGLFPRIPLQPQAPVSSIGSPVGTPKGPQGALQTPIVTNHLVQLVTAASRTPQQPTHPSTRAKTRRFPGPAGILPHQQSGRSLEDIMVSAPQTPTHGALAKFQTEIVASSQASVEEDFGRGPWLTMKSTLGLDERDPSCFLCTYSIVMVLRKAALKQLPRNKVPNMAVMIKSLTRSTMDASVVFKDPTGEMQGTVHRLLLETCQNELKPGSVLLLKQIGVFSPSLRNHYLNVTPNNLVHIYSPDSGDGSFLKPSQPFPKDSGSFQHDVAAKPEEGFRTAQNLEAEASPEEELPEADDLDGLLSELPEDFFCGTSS

HROB-FLAG [2] = biological target: T1, HROB-FLAG; test: EMSA; 3 mM EDTA; EMSA: 25 mM Tris-acetate pH 7.5, 3 mM EDTA (or 4 mM ATP/ATPgS + 1 mM Mg acetate), 1 mM DTT, 0.1 mg/ml BSA, 1 nM DNA (100 ng for M13), 15 min on ice, gels at 4 C; mass photometry: 25 mM HEPES-NaOH pH 7.5, 2 mM Mg acetate, 1 mM ATP, room temperature; conditions: protein: recombinant; tags: C-terminal FLAG; label: 3' 32P-dC (terminal transferase); single strand
HROB-ΔOB = biological target: T2, HROB-ΔOB (human, UniProt Q8N3J3-4 1-490+575-646, T126P;internal_change); test: EMSA; 3 mM EDTA; comparable to WT HROB; EMSA: 25 mM Tris-acetate pH 7.5, 3 mM EDTA (or 4 mM ATP/ATPgS + 1 mM Mg acetate), 1 mM DTT, 0.1 mg/ml BSA, 1 nM DNA (100 ng for M13), 15 min on ice, gels at 4 C; mass photometry: 25 mM HEPES-NaOH pH 7.5, 2 mM Mg acetate, 1 mM ATP, room temperature; conditions: protein: recombinant; tags: FLAG; label: 3' 32P-dC (terminal transferase); single strand
T2 sequence: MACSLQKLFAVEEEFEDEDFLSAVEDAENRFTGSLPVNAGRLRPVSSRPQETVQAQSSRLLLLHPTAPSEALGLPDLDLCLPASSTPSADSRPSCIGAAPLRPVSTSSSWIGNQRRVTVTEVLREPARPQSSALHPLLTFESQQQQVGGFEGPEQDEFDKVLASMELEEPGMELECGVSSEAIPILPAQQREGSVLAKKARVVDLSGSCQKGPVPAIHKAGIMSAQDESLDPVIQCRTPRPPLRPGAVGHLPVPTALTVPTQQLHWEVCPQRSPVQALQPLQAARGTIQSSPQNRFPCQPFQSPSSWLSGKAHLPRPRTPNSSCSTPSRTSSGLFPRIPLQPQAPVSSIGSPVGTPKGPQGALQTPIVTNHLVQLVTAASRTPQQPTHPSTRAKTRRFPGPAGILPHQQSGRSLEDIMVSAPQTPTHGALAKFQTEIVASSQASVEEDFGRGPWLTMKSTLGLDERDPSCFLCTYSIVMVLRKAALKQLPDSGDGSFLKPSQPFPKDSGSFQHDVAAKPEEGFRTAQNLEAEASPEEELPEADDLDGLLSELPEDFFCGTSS

B1: PC216 (70 nt ssDNA) (ssDNA)
DNA: GTAAGTGCCGCGGTGCGGGTGCCAGGGCGTGCCCTTGGGCTCCCCGGGCGCGTACTCCACCTCATGCATC
B1: binds (MCM8 R309D;MBP-MCM9).

B2: Holliday junction (PC1253/PC1254/PC1255/PC1256) (structured_DNA)
DNA 1: TGGGTCAACGTGGGCAAAGATGTCCTAGCAATGTAATCGTCTATGACGTT
DNA 2: TGCCGAATTCTACCAGTGCCAGTGATGGACATCTTTGCCCACGTTGACCC
DNA 3: GTCGGATCCTCTAGACAGCTCCATGATCACTGGCACTGGTAGAATTCGGC
DNA 4: CAACGTCATAGACGATTACATTGCTACATGGAGCTGTCTAGAGGATCCGA
B2: binds (HROB-FLAG [1]; label: 3' 32P-dC on PC1253, four-way junction 1:2 2:3 3:4 4:1).

B3: Y-structure (PC1254/PC1253) (structured_DNA)
DNA 1: TGCCGAATTCTACCAGTGCCAGTGATGGACATCTTTGCCCACGTTGACCC
DNA 2: TGGGTCAACGTGGGCAAAGATGTCCTAGCAATGTAATCGTCTATGACGTT
B3: binds (HROB-FLAG [1]; label: 3' 32P-dC on PC1254, fork 1:2).

B4: X12-3 HJ3 (93 nt ssDNA) (ssDNA)
DNA: GAGATCTATCTGGTGCCTTCTGACAGTGAATGGGTAACGAATCGTAATAGTCTCTAGACAGCATGTCCTAGCAATGTAATCGTCTATGACGTC
B4: binds (HROB-FLAG [2]); binds (HROB-ΔOB).
